Experimental data as given in paper PMC3529917 (2012).

Molecular target: complement C1q (Homo sapiens, UniProt P02745, C1q succinimidyl alkyne-labeled, Fz8 CRD IgG/Fc fusion)
Test: pull-down with ELISA quantification, Scatchard

B1: Frizzled-8 (Fz8/Fc) CRD (protein)
chain: AKELACQEITVPLCKGIGYNYTYMPNQFNHDTQDEAGLEVHQFWPLVEIQCSPDLKFFLCSMYTPICLEDYKKPLPPCRSVCERAKAGCAPLMRQYGFAWPDRMRCDRLPEQGNPDTLCMDY
  Kd: 2.8 nM
